Changes are numbered by the printed parent chain.
B1: antibody F4P5 (antibody, V domains shown)
VH: EVQLVESGGGVVQPGRSLRLSCAASGFTFSNFGMHWVRQPPGKGLEWVAVISYDGSDKFYADSVKGRFTISRDNFKNTLYVQMNSLRAEDTAVYYCAKDRVRTKYYYDHSGPFDYWGRGTLVTVSS
VL: SYELTQPPSVSVAPGQTARIACGGNNIGSKSVHWYQQRPGQAPVLVVYDDDDRPSGIPERFSGSNSGNTATLTISRVEAGDEADYFCQVWMTNSDRPVFGGGTKLTVL
B2: antibody E4P2 (antibody, V domains shown)
VH: QVQLQESGPGLVKPSQTLSLTCTVSGGSISSGGYYWSWIRQHPGKGLEWIGYMYYSGSTNYNPSLKSRVTISVDTSKNQFSLKLTSVTAADTAVYYCARDRRDYGDYYYFGMDVWGQGTTVTVSS
VL: QSVLTQPPSVSGAPGQRVTISCTGSSSNIGAGYDVHWYQQLPGTAPKLLIYANSNRPSGVPDRFSGSKSGTSASLAITGLQAEDEANYYCQSYDSSLSVYVVFGGGTKLTVL
B3: antibody E6P5 (antibody, V domains shown)
VH: EVQLVESGGGLVQPGRSLRLSCSASGFTFDDHAMHWVRQAPGKGLEWVAGINWNSASIVYADSVKGRFTISRDNVKNSLYLQMNSLRADDTALYYCAKDFGLWFGESRGIDAWGRGTTVTVSS
VL: DIVMTQSPLSLPVTPGEPASISCRPSQSLLHSNGYNYLNWYLQKPGRSPQLLIYLGSNRASGVPDRFSGSGSGTDFTLKISRVEAEDVGIYYCMQALQTPITFGQGTRLEIK
B4: antibody F2P7 (antibody, V domains shown)
VH: EVQLVQSGGGLVQPGGSLKLSCAASGFSSSGSEIHWVRQASGRGLEWIGRVRSTANRHAPGYTESVRGTFTVSRDESKNTASLELKSLKIEDTAVYYCTGVRGVISRYFAMDVWGQGTTVTVSS
VL: QSALTQPASVSGSPGQSITISCTGTNSDLGSYNYVSWYRLHPGKDPHLIIYDVTHRPSGVSSRFSGSKSGKTASLTISGLQSEDEAEYFCCSYASVGSPIFGGGTKVTVL
B5: antibody D7P6 (antibody, V domains shown)
VH: EVQLLESGGGLVQPGGSLRLSCAASGFPFSSYAMSWVRQAPGKGLEWVSGITGSASGTYYADSVKGRFTISRDNSKNTLYLRMNSLRAEDTAVYYCAKEGAYSYDYWYFDLWGRGTLVTVSS
VL: EIVLTQSPGTLSLSPGERATLSCRASQSVSGSYLAWYQQKPGQTPRLLIYGASSRATGIPDRFSGSGSGTDFTLTINRLDPEDFGVYYCQQYGSLVTFGGGSKVEIK
B6: antibody D3P7 (antibody, V domains shown)
VH: QVQLVQSGSELKKPGASVRVSCKASAYTFTNSAINWVRQAPGQGLEWTGWINTNTGNPAYAQGFRGRFVFSLDTSVSEAYLQITNLKAEDTATYYCAVPYNFGGDHNSFHFFGMDVWGQGTTVTVSS
VL: QSALTQPASVSGSPGQSITISCTGSSSDVGTYNFVSWYQQQPAKAPKVMIYEGTKRPSGISDRFSGSKSGNTASLTISGLQAEDEADYYCSSYAGGNAFVFGTGTRVSVL
B7: antibody F3P7 (antibody, V domains shown)
VH: QVQLVQSGAEVKKPGASVKVSCKVSGYTFTSYSMHWLRQAPGQRLEWMGWINAGNGDTKYSQKFQGRITISRDTSARTTYMELSSLRSEDTAVFYCARSNSPTVTYNYYYYAMDVWGQGTTVTVSS
VL: EIVLTQSPGTLSLSPGERATLSCRASQSVRSSYLAWYQQQAGQAPRLLIYDASSRATGIPDRFSGSGSGTDFSLTISRLDPEDFAVYYCQQYGNSPLTFGGGTKVEIK
B8: antibody D11P7 (antibody, V domains shown)
VH: EVQLVESGGGLVQPGGSLRLSCAASGFTFRSYTMDWVRQAPGKGLEWVSCISGSSNHKYYADSVRGRFTISRDNAKNSLFLQMNSLRAEDSAVYYCAREDDILTPLYGMDVWGPGTTVTVSS
VL: QSALTQPASVSGSPGQSITISCTGTSSDVGAYNYVSWYRLRPGKDPHLIIYDVSHRPAGVSNRFSGSKSGNTASLTISGLQAEDEDEYYCCSYAHRGTPLFGGGTKLTVL
B9: antibody C11P7 (antibody, V domains shown)
VH: EVQLVESGGGLVQPGGSLKLSCAASGFSLSNSEVHWVRQASGKGLEWIGRVRSRANRHATGYTESVNGRFTVSRDDSKNTASLQLESLKIEDTAVYYCTGVRGVISRYFAMDVWGQGTTVTVSS
VL: B8 VL
B10: antibody B10P1 (antibody, V domains shown)
VH: EVQLSESGGGLVQPGGSLRLSCAASGFTFSSYAMSWVRQAPGKGLEWVSSLTGSGGSTYYRDSVKGRFTIFRDNSKKTLYMQMNSLRAEDTAVYYCAKEGAYSYDFWYFDLWGRGTLVTVSS
VL: EIVLTQSPGTLSLSPGERATLSCRASQTVSGNYLAWYQQKPGQSPSLLIYGASSRATGIPDRFTGSGSGTDFTLTISRLEPADFAVYYCQQYGRPLTFGGGTKVDIK
B11: antibody G9P2 (antibody, V domains shown)
VH: B10 VH with S5L
VL: B10 VL with I49T, D105E

How the values were obtained:
[1] = molecular target: VP1 capsid protein on BKV pseudovirions of genotype Ia (BK-D; JF894228) (BK virus genotype Ia (BK-D)); assay: cell-based or functional assay
[2] = molecular target: VP1 capsid protein on BKV pseudovirions of genotype II (GBR-12; AB263920) (BK virus genotype II (GBR-12)); assay: cell-based or functional assay
[3] = molecular target: VP1 capsid protein on BKV pseudovirions of genotype IVc2 (A-66H; AB369093) (BK virus genotype IVc2 (A-66H)); assay: cell-based or functional assay
[4] = molecular target: T1, VP1 pentamer of BKV genotype IV (recombinant) (BK virus genotype IV, UniProt P14996 30-300); assay: ELISA, coated VP1 pentamer
T1 construct: also called GIV; VP1 BKV subtype IV; not shown: N-terminal His-tag of pESPRIT002; C-terminal biotin acceptor peptide (BAP) of pESPRIT002

[5] = molecular target: T2, VP1 pentamer of BKV genotype II (recombinant) (BK virus genotype II, UniProt P14996 30-300); assay: ELISA, coated VP1 pentamer
T2 construct: also called GII; VP1 geno II pentamer; not shown: N-terminal His-tag of pESPRIT002; C-terminal biotin acceptor peptide (BAP) of pESPRIT002

| Binder | Neutralization PSV IC50 [1] [µg/mL] | Neutralization PSV IC50 [2] [µg/mL] | Neutralization PSV IC50 [3] [µg/mL] | EC50 [4] [µg/mL] | EC50 [5] [µg/mL] | binding result [4] | binding result [5] |
| --- | --- | --- | --- | --- | --- | --- | --- |
| B1 | 0.0008 | 0.471 | 15.9 | 12 | 10 | – | – |
| B2 | 0.0399 | 0.979 | > 50 | 0.18 | 0.025 | – | – |
| B3 | 0.0008 | 0.232 | 1.19 | 3 | 0.6 | – | – |
| B4 | > 50 | > 50 | > 50 | 4 | 10 | – | – |
| B5 | 0.096 | 0.0103 | > 50 | 70 | 0.25 | – | – |
| B6 | > 50 | > 50 | > 50 | 0.3 | 0.15 | – | – |
| B7 | > 50 | 0.0457 | 0.614 | 1.8 | 1.5 | – | – |
| B8 | 0.275 | 0.0901 | > 50 | – | – | no binding (tested: starting at 50 µg/mL) | no binding (tested: starting at 50 µg/mL) |
| B9 | > 50 | > 50 | > 50 | 4 | 6 | – | – |
| B10 | 1.27 | 0.107 | > 50 | 15 | 2.8 | – | – |
| B11 | 0.683 | 0.0336 | > 50 | 10 | 1.5 | – | – |

From patent EP4659811A1 (Université de Strasbourg, dated 2025)
